Assay results from IntAct's records for PubMed 12117771.

B1: Cadherin-related family member 2 (Homo sapiens), Q9BYE9 (parent)
chain: MAQLWLSCFLLPALVVSVAANVAPKFLANMTSVILPEDLPVGAQAFWLVAEDQDNDPLTYGMSGPNAYFFAVTPKTGEVKLASALDYETLYTFKVTISVSDPYIQVQREMLVIVEDRNDNAPVFQNTAFSTSINETLPVGSVVFSVLAVDKDMGSAGMVVYSIEKVIPSTGDSEHLFRILANGSIVLNGSLSYNNKSAFYQLELKACDLGGMYHNTFTIQCSLPVFLSISVVDQPDLDPQFVREFYSASVAEDAAKGTSVLTVEAVDGDKGINDPVIYSISYSTRPGWFDIGADGVIRVNGSLDREQLLEADEEVQLQVTATETHLNIYGQEAKVSIWVTVRVMDVNDHKPEFYNCSLPACTFTPEEAQVNFTGYVDEHASPRIPIDDLTMVVYDPDKGSNGTFLLSLGGPDAEAFSVSPERAVGSASVQVLVRVSALVDYERQTAMAVQVVATDSVSQNFSVAMVTIHLRDINDHRPTFPQSLYVLTVPEHSATGSVVTDSIHATDPDTGAWGQITYSLLPGNGADLFQVDPVSGTVTVRNGELLDRESQAVYYLTLQATDGGNLSSSTTLQIHLLDINDNAPVVSGSYNIFVQEEEGNVSVTIQAHDNDEPGTNNSRLLFNLLPGPYSHNFSLDPDTGLLRNLGPLDREAIDPALEGRIVLTVLVSDCGEPVLGTKVNVTITVEDINDNLPIFNQSSYNFTVKEEDPGVLVGVVKAWDADQTEANNRISFSLSGSGANYFMIRGLVLGAGWAEGYLRLPPDVSLDYETQPVFNLTVSAENPDPQGGETIVDVCVNVKDVNDNPPTLDVASLRGIRVAENGSQHGQVAVVVASDVDTSAQLEIQLVNILCTKAGVDVGSLCWGWFSVAANGSVYINQSKAIDYEACDLVTLVVRACDLATDPGFQAYSNNGSLLITIEDVNDNAPYFLPENKTFVIIPELVLPNREVASVRARDDDSGNNGVILFSILRVDFISKDGATIPFQGVFSIFTSSEADVFAGSIQPVTSLDSTLQGTYQVTVQARDRPSLGPFLEATTTLNLFTVDQSYRSRLQFSTPKEEVGANRQAINAALTQATRTTVYIVDIQDIDSAARARPHSYLDAYFVFPNGSALTLDELSVMIRNDQDSLTQLLQLGLVVLGSQESQESDLSKQLISVIIGLGVALLLVLVIMTMAFVCVRKSYNRKLQAMKAAKEARKTAAGVMPSAPAIPGTNMYNTERANPMLNLPNKDLGLEYLSPSNDLDSVSVNSLDDNSVDVDKNSQEIKEHRPPHTPPEPDPEPLSVVLLGRQAGASGQLEGPSYTNAGLDTTDL

Variants of: B1
Settings: with mast2_human MAST2, Q6P0Q8
mast2_human MAST2, Q6P0Q8, sequence (Q6P0Q8 whole entry): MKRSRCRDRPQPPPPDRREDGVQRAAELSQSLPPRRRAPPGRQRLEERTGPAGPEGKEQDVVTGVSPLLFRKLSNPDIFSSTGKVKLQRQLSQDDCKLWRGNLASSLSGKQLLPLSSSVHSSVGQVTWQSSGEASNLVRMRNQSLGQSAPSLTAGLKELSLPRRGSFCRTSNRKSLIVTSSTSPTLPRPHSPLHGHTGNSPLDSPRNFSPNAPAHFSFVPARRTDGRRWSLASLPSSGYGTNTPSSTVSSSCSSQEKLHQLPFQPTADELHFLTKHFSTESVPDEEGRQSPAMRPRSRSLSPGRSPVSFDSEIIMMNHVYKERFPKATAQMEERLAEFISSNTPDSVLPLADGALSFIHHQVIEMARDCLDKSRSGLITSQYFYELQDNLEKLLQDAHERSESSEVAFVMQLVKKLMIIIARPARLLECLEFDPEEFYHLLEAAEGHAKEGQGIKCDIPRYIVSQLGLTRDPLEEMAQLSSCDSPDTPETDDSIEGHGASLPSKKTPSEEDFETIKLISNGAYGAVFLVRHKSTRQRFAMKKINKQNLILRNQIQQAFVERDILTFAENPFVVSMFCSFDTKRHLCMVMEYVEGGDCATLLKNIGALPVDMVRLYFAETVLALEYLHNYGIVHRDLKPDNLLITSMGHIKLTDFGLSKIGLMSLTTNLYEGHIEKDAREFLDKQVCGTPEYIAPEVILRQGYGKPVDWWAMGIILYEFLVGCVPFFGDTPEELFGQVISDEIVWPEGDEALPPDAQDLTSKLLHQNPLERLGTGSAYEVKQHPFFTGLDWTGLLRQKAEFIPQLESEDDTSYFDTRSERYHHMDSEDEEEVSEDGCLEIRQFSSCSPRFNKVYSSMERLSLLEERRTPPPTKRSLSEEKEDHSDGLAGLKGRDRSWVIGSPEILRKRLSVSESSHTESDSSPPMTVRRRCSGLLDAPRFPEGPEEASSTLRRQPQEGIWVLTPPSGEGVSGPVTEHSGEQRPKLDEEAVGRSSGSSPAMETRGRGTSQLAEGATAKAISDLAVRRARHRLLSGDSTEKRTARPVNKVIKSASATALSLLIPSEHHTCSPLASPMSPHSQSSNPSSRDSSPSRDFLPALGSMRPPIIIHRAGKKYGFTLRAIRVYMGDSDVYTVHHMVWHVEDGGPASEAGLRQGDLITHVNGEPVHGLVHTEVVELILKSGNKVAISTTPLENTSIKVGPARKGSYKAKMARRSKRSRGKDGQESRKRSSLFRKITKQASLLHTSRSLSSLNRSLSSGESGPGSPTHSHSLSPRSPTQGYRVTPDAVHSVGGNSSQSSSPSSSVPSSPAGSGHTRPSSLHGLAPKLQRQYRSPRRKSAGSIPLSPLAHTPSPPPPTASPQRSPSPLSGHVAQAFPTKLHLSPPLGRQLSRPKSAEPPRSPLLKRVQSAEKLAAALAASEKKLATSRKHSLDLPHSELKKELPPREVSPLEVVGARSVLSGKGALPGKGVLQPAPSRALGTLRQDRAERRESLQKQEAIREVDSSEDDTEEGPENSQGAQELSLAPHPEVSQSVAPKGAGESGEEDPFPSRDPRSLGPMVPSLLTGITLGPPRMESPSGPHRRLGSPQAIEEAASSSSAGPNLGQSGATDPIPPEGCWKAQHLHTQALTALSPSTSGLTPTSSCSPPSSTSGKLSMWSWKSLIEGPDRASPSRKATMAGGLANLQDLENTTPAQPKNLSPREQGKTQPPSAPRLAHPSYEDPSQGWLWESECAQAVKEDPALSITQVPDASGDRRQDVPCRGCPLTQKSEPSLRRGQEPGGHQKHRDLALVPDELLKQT
L1310R was tested, and the “effect of a mutation on the interaction” value was “decreasing interaction”.
